Residue numbers refer to the chain shown, from its start. Numbers in names are those of the source. Read-outs that look alike come from different tables or passages of the source.
B1: VH14_1.VL15 (antibody, human IgG4, V domains shown)
VH: QVQLVQSGAEVKKPGASVKVSCKASGYTFTSYVMHWVRQAPGQGLEWMGYINPYNDAPKYNEKFKGRVTMTSDTSASTAYMELSSLRSDDTAVYYCARGLGYALYYAMDYWGQGTTVTVSS
VL: DIVMTQSPSTLSASVGDRVTITCKASQNVGNNVAWYQQKPGKAPKLLISSASNRDSGVPSRFSGSGSGTEFTLTISSLQPDDFATYFCQQYNIYPFTFGQGTKLEIK
notes: VH14 with R72S; rest is human IgG4 (S241P, Kabat) and human kappa; also called 14_1.15; antibody 14_1.15
B2: VH11.VL15 (antibody, human IgG4 S228P, kappa, V domains shown)
VH: B1 VH with G44R, M70I, S72R, D89E
VL: DIVMTQSPSTLSASVGDRVTITCKASQNVGNNVAWYQQKPGKAPKLLISSASNRDSGVPSRFSGSGSGTEFTLTISSLQPDDFATYFCQQYNIYPFTFGQGTKLEIKR
notes: Humanized IgG4 (S241P, Kabat) with human kappa, from HEK293T; also called 11.15
B3: hAPRIL.01A (antibody, mouse IgG1, kappa, V domains shown)
VH: EVQLQQSGPELVKPGASVKMSCKASGYTFTSYVMHWVKQKPGQGLEWIGYINPYNDAPKYNEKFKGKATVTSDKSSGTAYMELSSLTSEDSAVYYCARGLGYALYYAMDYWGQGTSVTVSS
VL: DIVMTQSQKFKSTSVGDRVSVTCKASQNVGNNVAWYQQKAGQSPKALISSASNRDSGVPDRFTGSGSGTDFTLTISNVQSEDLADYFCQQYNIYPFTFGSGTKLEIKR
notes: Mouse antibody; also called mouse hAPRIL.01A antibody

Tests used:
[1] = biological target: T1, FLAG-tagged human APRIL (human, UniProt O75888 105-250, limits assumed); test: FLAG-APRIL ELISA after 10 min at 65 °C, antibody at 1 µg/ml
T1 construct: also called FLAG-tagged APRIL; FLAG-APRIL; not shown: FLAG tag
T1 sequence (looked up): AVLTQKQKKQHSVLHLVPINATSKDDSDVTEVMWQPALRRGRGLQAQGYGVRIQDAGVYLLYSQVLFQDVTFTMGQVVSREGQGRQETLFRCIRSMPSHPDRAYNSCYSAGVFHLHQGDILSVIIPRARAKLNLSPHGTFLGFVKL
Protocol: (§1) The plasmids encoding the VH and VL constructs were mixed in a 1:3 ratio (4 μg in total) and transiently expressed by transfection into HEK293T human embryonic kidney cells (HEK293T/17, ATCC-CRL-11268), using Lipofectamine 2000 transfection reagent (Invitrogen) following the manufacturer's instructions. Cell supernatants were harvested after 5 days and tested for expression of antibody and binding to APRIL using an enzyme-linked immuno assay (ELISA). In these ELISAs, all incubation steps were followed by a wash step with PBST (PBS with 0.01% Tween 20). Maxisorb 96-wells plates (Nunc) were coated with 0.5 μg/ml anti-FLAG (Sigma) or anti-IgG4 (Jackson laboratories) and incubated overnight at 4° C. Subsequently the anti-FLAG coated 96-wells plates were incubated with FLAG-tagged human APRIL for 1 hour at room temperature. Next, supernatants and dilutions thereof were incubated for 1 hour, which was followed by an incubation of 1 hour with mouse anti-human IgG HRP-conjugate (Southern Biotechnology).
(§2) To determine the effect of humanization on the stability of the antibodies, humanized antibodies were exposed to a range of temperatures for 10 minutes. Purified antibodies were diluted to 3.16 μg/ml and dilutions thereof in PBS. Next, these solutions were exposed to 65° C. or 70° C. and residual binding after heat treatment of the antibodies was measured using the FLAG-tagged APRIL ELISA assay as described before (see Table 6).
(§3) In addition, the stability of the substituted humanized antibodies was improved as determined using thermostability studies as described in Example 3 (see Table 9).

[2] = biological target: T1, FLAG-tagged human APRIL; test: FLAG-APRIL ELISA after 10 min at 70 °C, antibody at 1 µg/ml
[3] = biological target: T1, FLAG-tagged human APRIL; test: FLAG-APRIL ELISA after 10 min at 65 °C, antibody at 3.16 µg/ml
Protocol: as §1, §2, §3

[4] = biological target: T1, FLAG-tagged human APRIL; test: FLAG-APRIL ELISA after 10 min at 70 °C, antibody at 3.16 µg/ml
[5] = biological target: T1, FLAG-tagged human APRIL; test: FLAG-APRIL ELISA after 10 min at 65 °C, antibody at 0.316 µg/ml
Protocol: as §1, §2, §3

[6] = biological target: T1, FLAG-tagged human APRIL; test: FLAG-APRIL ELISA after 10 min at 70 °C, antibody at 0.316 µg/ml
[7] = biological target: T1, FLAG-tagged human APRIL; test: ELISA: FLAG-tagged human APRIL captured on anti-FLAG plate, purified antibody titrated
[8] = biological target: T1, FLAG-tagged human APRIL; test: as above; remark: listed apart in the source
[9] = biological target: T1, FLAG-tagged human APRIL; test: competition ELISA: antibody premixed with FLAG-tagged APRIL, added to coated Fc-BCMA, anti-FLAG HRP
Protocol: Again, plasmids encoding the VH and VL constructs were mixed in a 1:3 ratio (32 μg) and transiently expressed by transfection into (8*10⁶) HEK293T human embryonic kidney cells (HEK293T), using Lipofectamine 2000 transfection reagent (Invitrogen) according to the manufacturer's instructions. Supernatants were harvested (10 ml) and antibodies were purified using MabSelect Sure Protein A resin according to the manufacturer's instructions (GE Healthcare). Buffer was exchanged for PBS using Zeba desalting columns (Thermo Scientific). The concentration of purified antibodies was determined based on OD280 (Nanodrop ND-1000). The binding of the purified antibodies to APRIL was established using the above described APRIL ELISA. The blocking capability of the humanized antibodies with BCMA and TACI receptors, was tested in a competition ELISA. In these ELISAs, all incubation steps were followed by a wash step with PBST (PBS with 0.01% Tween 20). Maxisorb 96-wells plates (Nunc) were coated with 0.5 μg/ml Fc-BCMA (R&D Systems) or Fc-TACI (R&D Systems) and incubated overnight at 4° C. […] Reactions were stopped with 100 μl 0.5 M H2504 and absorbances were measured at 450 and 620 nm. Calculated EC₅₀ and IC₅₀ representing the concentration at which 50% of the total binding signal or blocking is observed are represented in Table 5. […]

[10] = biological target: T1, FLAG-tagged human APRIL; test: as above; remark: listed apart in the source
Protocol: (§4) A subset of humanized antibodies described above was selected for further analyses. Again, plasmids encoding the VH and VL constructs were mixed in a 1:3 ratio (32 μg) and transiently expressed by transfection into (8*10⁶) HEK293T human embryonic kidney cells (HEK293T), using Lipofectamine 2000 transfection reagent (Invitrogen) according to the manufacturer's instructions. Supernatants were harvested (10 ml) and antibodies were purified using MabSelect Sure Protein A resin according to the manufacturer's instructions (GE Healthcare). Buffer was exchanged for PBS using Zeba desalting columns (Thermo Scientific). The concentration of purified antibodies was determined based on OD280 (Nanodrop ND-1000). The binding of the purified antibodies to APRIL was established using the above described APRIL ELISA. The blocking capability of the humanized antibodies with BCMA and TACI receptors, was tested in a competition ELISA. In these ELISAs, all incubation steps were followed by a wash step with PBST (PBS with 0.01% Tween 20). Maxisorb 96-wells plates (Nunc) were coated with 0.5 μg/ml Fc-BCMA (R&D Systems) or Fc-TACI (R&D Systems) and incubated overnight at 4° C. Next, humanized antibodies and dilutions thereof were incubated, premixed with FLAG-tagged APRIL, for 1 hour, which was followed by an incubation of 1 hour with anti-FLAG HRP-conjugate (Sigma). Immunoreactivity was visualized with 100 μl TMB Stabilized Chromagen (Invitrogen). Reactions were stopped with 100 μl 0.5 M H2504 and absorbances were measured at 450 and 620 nm. Calculated EC₅₀ and IC₅₀ representing the concentration at which 50% of the total binding signal or blocking is observed are represented in Table 5.
The antibodies were tested for binding, blockade, and stability as described before.

[11] = biological target: T1, FLAG-tagged human APRIL; test: FLAG-APRIL ELISA after 10 min at 65 °C, antibody at 1 µg/ml; remark: listed apart in the source
Protocol: as §1, §2

[12] = biological target: T1, FLAG-tagged human APRIL; test: FLAG-APRIL ELISA after 10 min at 70 °C, antibody at 1 µg/ml; remark: listed apart in the source
Protocol: as §1, §2

[13] = biological target: T1, FLAG-tagged human APRIL; test: FLAG-APRIL ELISA after 10 min at 65 °C, antibody at 3.16 µg/ml; remark: listed apart in the source
Protocol: as §1, §2

[14] = biological target: T1, FLAG-tagged human APRIL; test: FLAG-APRIL ELISA after 10 min at 70 °C, antibody at 3.16 µg/ml; remark: listed apart in the source
Protocol: as §1, §2

[15] = biological target: T1, FLAG-tagged human APRIL; test: FLAG-APRIL ELISA after 10 min at 65 °C, antibody at 0.316 µg/ml; remark: listed apart in the source
Protocol: as §1, §2

[16] = biological target: T1, FLAG-tagged human APRIL; test: FLAG-APRIL ELISA after 10 min at 70 °C, antibody at 0.316 µg/ml; remark: listed apart in the source
Protocol: as §1, §2

[17] = biological target: T1, FLAG-tagged human APRIL; test: ELISA: FLAG-tagged human APRIL captured on anti-FLAG plate, purified antibody titrated; remark: listed apart in the source
Protocol: as §1
as §4, with “(Sigma).” for “(Sigma). Immunoreactivity was visualized with 100 μl TMB Stabilized Chromagen (Invitrogen). Reactions were stopped with 100 μl 0.5 M H2504 and absorbances were measured at 450 and 620 nm. Calculated EC₅₀ and IC₅₀ representing the concentration at which 50% of the total binding signal or blocking is observed are represented in Table 5.”

[18] = biological target: T1, FLAG-tagged human APRIL; test: competition ELISA: antibody premixed with FLAG-tagged APRIL, added to coated Fc-BCMA, anti-FLAG HRP; remark: listed apart in the source
Protocol: A subset of humanized antibodies described above was selected for further analyses. Again, plasmids encoding the VH and VL constructs were mixed in a 1:3 ratio (32 μg) and transiently expressed by transfection into (8*10⁶) HEK293T human embryonic kidney cells (HEK293T), using Lipofectamine 2000 transfection reagent (Invitrogen) according to the manufacturer's instructions. Supernatants were harvested (10 ml) and antibodies were purified using MabSelect Sure Protein A resin according to the manufacturer's instructions (GE Healthcare). Buffer was exchanged for PBS using Zeba desalting columns (Thermo Scientific). The concentration of purified antibodies was determined based on OD280 (Nanodrop ND-1000). The binding of the purified antibodies to APRIL was established using the above described APRIL ELISA. The blocking capability of the humanized antibodies with BCMA and TACI receptors, was tested in a competition ELISA. In these ELISAs, all incubation steps were followed by a wash step with PBST (PBS with 0.01% Tween 20). […] Reactions were stopped with 100 μl 0.5 M H2504 and absorbances were measured at 450 and 620 nm. Calculated EC₅₀ and IC₅₀ representing the concentration at which 50% of the total binding signal or blocking is observed are represented in Table 5.

Binder	% residual binding after heat treatment (room temperature = 100%) [1] [%]	% residual binding after heat treatment (room temperature = 100%) [2] [%]	% residual binding after heat treatment (room temperature = 100%) [3] [%]	% residual binding after heat treatment (room temperature = 100%) [4] [%]	% residual binding after heat treatment (room temperature = 100%) [5] [%]	% residual binding after heat treatment (room temperature = 100%) [6] [%]	EC50 [7] [nM]	EC50 [8] [nM]	IC50 [9] [nM]	IC50 [10] [nM]	% residual binding after heat treatment (room temperature = 100%) [11] [%]	% residual binding after heat treatment (room temperature = 100%) [12] [%]	% residual binding after heat treatment (room temperature = 100%) [13] [%]	% residual binding after heat treatment (room temperature = 100%) [14] [%]	% residual binding after heat treatment (room temperature = 100%) [15] [%]	% residual binding after heat treatment (room temperature = 100%) [16] [%]	EC50 [17] [nM]	IC50 [18] [nM]
B1	46.1	38.3	59.9	38	71	63	1.29	1.29	2.63	2.63								
B2											55.1	62.4	63.1	59.1	74.6	82	121	4.3
B3							0.16	0.16	0.46	0.46	8.4	4.9	27.1	6.7	13.7	11.2		
